Consider 23 molecules from patent US7985715B2 (priority 2004, dated 2011).

B1: artificial receptor No. 93 (n=3): peptide building blocks RY MY DD (designed binder)
peptide 1: Ac-KAGAGRGY-NHMe
peptide 2: Ac-KAGAGMGY-NHMe
peptide 3: Ac-KAGAGDGD-NHMe
B2: artificial receptor No. 133 (n=4): peptide building blocks RM RY QH MY (designed binder)
peptide 1: KAGAGRGM-NHMe
peptide 2: Ac-KAGAGRGY-NHMe
peptide 3: Ac-KAGAGQGH-NHMe
peptide 4: Ac-KAGAGMGY-NHMe
modifications: not fully specified (N-terminus)
B3: artificial receptor No. 61 (n=3): peptide building blocks RM QM MY (designed binder)
peptide 1: Ac-KAGAGRGM-NHMe
peptide 2: Ac-KAGAGQGM-NHMe
peptide 3: Ac-KAGAGMGY-NHMe
B4: artificial receptor No. 49 (n=3): peptide building blocks RM RY HM (designed binder)
peptide 1: KAGAGRGM-NHMe
peptide 2: Ac-KAGAGRGY-NHMe
peptide 3: Ac-KAGAGHGM-NHMe
modifications: not fully specified (N-terminus)
B5: artificial receptor No. 22 (n=2): peptide building blocks RY MY (designed binder)
peptide 1: Ac-KAGAGRGY-NHMe
peptide 2: Ac-KAGAGMGY-NHMe
B6: artificial receptor No. 15 (n=2): peptide building blocks RM MY (designed binder)
peptide 1: Ac-KAGAGRGM-NHMe
peptide 2: Ac-KAGAGMGY-NHMe
B7: artificial receptor No. 40 (n=2): peptide building blocks HM MY (designed binder)
peptide 1: Ac-KAGAGHGM-NHMe
peptide 2: Ac-KAGAGMGY-NHMe
B8: artificial receptor No. 72 (n=3): peptide building blocks RM MY DD (designed binder)
peptide 1: KAGAGRGM-NHMe
peptide 2: Ac-KAGAGMGY-NHMe
peptide 3: Ac-KAGAGDGD-NHMe
modifications: not fully specified (N-terminus)
B9: artificial receptor No. 68 (n=3): peptide building blocks RM HM MY (designed binder)
peptide 1: KAGAGRGM-NHMe
peptide 2: Ac-KAGAGHGM-NHMe
peptide 3: Ac-KAGAGMGY-NHMe
modifications: not fully specified (N-terminus)
B10: artificial receptor No. 278 (n=5): peptide building blocks RM RY QM MY TY (designed binder)
peptide 1: KAGAGRGM
peptide 2: KAGAGRGY
peptide 3: KAGAGQGM
peptide 4: KAGAGMGY
peptide 5: KAGAGTGY
modifications: not fully specified; N-terminal acetyl (Ac-HN-); C-terminal methyl amide (-C(O)-NH-CH3)
B11: artificial receptor No. 65 (n=3): peptide building blocks RM QY MY (designed binder)
peptide 1: KAGAGRGM-NHMe
peptide 2: Ac-KAGAGQGY-NHMe
peptide 3: Ac-KAGAGMGY-NHMe
modifications: not fully specified (N-terminus)
B12: artificial receptor No. 56 (n=3): peptide building blocks RM QH MY (designed binder)
peptide 1: Ac-KAGAGRGM-NHMe
peptide 2: Ac-KAGAGQGH-NHMe
peptide 3: Ac-KAGAGMGY-NHMe
B13: artificial receptor No. 7 (n=1): peptide building block MY (peptide)
peptide: KAGAGMGY-NHMe
modifications: not fully specified (N-terminus)
B14: artificial receptor No. 69 (n=3): peptide building blocks RM HM TY (designed binder)
peptide 1: KAGAGRGM-NHMe
peptide 2: Ac-KAGAGHGM-NHMe
peptide 3: Ac-KAGAGTGY-NHMe
modifications: not fully specified (N-terminus)
B15: artificial receptor No. 50 (n=3): peptide building blocks RM RY MY (designed binder)
peptide 1: KAGAGRGM-NHMe
peptide 2: Ac-KAGAGRGY-NHMe
peptide 3: Ac-KAGAGMGY-NHMe
modifications: not fully specified (N-terminus)
B16: artificial receptor No. 89 (n=3): peptide building blocks RY HM MY (designed binder)
peptide 1: Ac-KAGAGRGY-NHMe
peptide 2: Ac-KAGAGHGM-NHMe
peptide 3: Ac-KAGAGMGY-NHMe
B17: artificial receptor No. 46 (n=3): peptide building blocks RM RY QH (designed binder)
peptide 1: KAGAGRGM-NHMe
peptide 2: Ac-KAGAGRGY-NHMe
peptide 3: Ac-KAGAGQGH-NHMe
modifications: not fully specified (N-terminus)
B18: artificial receptor No. 70 (n=3): peptide building blocks RM HM DD (designed binder)
peptide 1: KAGAGRGM-NHMe
peptide 2: Ac-KAGAGHGM-NHMe
peptide 3: Ac-KAGAGDGD-NHMe
modifications: not fully specified (N-terminus)
B19: artificial receptor No. 1 (n=1): peptide building block RM (peptide)
peptide: KAGAGRGM-NHMe
modifications: not fully specified (N-terminus)
B20: artificial receptor No. 10 (n=2): peptide building blocks RM TY (designed binder)
peptide 1: KAGAGRGM-NHMe
peptide 2: Ac-KAGAGTGY-NHMe
modifications: not fully specified (N-terminus)
B21: artificial receptor No. 71 (n=3): peptide building blocks RM MY TY (designed binder)
peptide 1: KAGAGRGM-NHMe
peptide 2: Ac-KAGAGMGY-NHMe
peptide 3: Ac-KAGAGTGY-NHMe
modifications: not fully specified (N-terminus)

Ends that are not written are not given here.

One assay concerns Anti-FLAG® M2 monoclonal antibody.
Test: not given
It is filed as binding.
Settings: not given
Take “MET-ASP-TYR-LYS-ASP-HIS-ASP-GLY-ASP-TYR-LYS-ASP-HIS-ASP-ILE-ASP-TYR-LYS-ASP-ASP-ASP-ASP-LYS [3×FLAG® peptide]”: the “binding of anti-FLAG Mab in the microarray (fluorescence)” value is reported as “bound”.

The test system is the same in the next assay.
Test: not given
Conditions: cited from earlier work.
Regarding “ASP-TYR-LYS-ASP-ASP-ASP-ASP-LYS [FLAG® peptide]”, the “binding by the commercially available antibody” value is “bound”.

The next assay concerns the target fluorescently labeled Anti-FLAG® M2 monoclonal antibody (Sigma). The experiment in a line: fluorescence microarray: peptides immobilized on epoxide slide, probed with fluorescently labeled antibody.
Settings: not given
Turning to B1, the Mean Fluorescence Units (fluorescence units) came out at 46700. B2 displayed a Mean Fluorescence Units (fluorescence units) of 47600. B3: the Mean Fluorescence Units (fluorescence units) turned out to be 47800. As to B4, the Mean Fluorescence Units (fluorescence units) came to 39800. In turn, B5 had a Mean Fluorescence Units (fluorescence units) of 53500. Take B6: the Mean Fluorescence Units (fluorescence units) was 64600.

Turning to B7, the Mean Fluorescence Units (fluorescence units) was 46800. Still for that read-out and setting: as for B8, the figure is 52100; as for B9, 34500; as for B10, 65000.

In turn, B11 showed a Mean Fluorescence Units (fluorescence units) of 40900. The same measure, in the same setting: to B12 belongs 32600; to B13, 64600. Still for that read-out and setting: to B14 belongs 39800; to B15, 54400; to B16, 57200. Molecule B17 gave a Mean Fluorescence Units (fluorescence units) of 39500.

B18 returned a Mean Fluorescence Units (fluorescence units) of 32500. Same read-out and setting: as for B19, the figure is 47700.

Molecule B20 came in with a Mean Fluorescence Units (fluorescence units) of 35100.

B21 came in with a Mean Fluorescence Units (fluorescence units) of 47800.
